Among the data in patent US20260374880 (published 2026) are binding result, Kd and IC50 values, retold here.

Substitutions are numbered along the chain they refer to. Where “and” joins values, the source holds several entries; their conditions need not be identical. Equal entries are not always repeated.

The target of one experiment is T1, TGFbR1 ECD V129G (human).
T1 chain: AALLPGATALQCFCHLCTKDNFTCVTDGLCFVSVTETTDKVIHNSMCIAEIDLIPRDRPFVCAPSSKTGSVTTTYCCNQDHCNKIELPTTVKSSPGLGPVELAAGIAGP
The experiment can be described thus: ELISA.

The target of experiment [1] is T2, human TGFbR1 ECD-133-myc(His)6 (human).
T2 chain: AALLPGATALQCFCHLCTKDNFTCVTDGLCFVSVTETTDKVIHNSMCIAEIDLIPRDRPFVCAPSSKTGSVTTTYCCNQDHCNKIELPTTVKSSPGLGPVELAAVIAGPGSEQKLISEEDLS
Description: SPR.

The target of experiment [2] is T2, human TGFbR1 ECD-133-myc(His)6. The experiment can be described thus: BLI.
Another experiment has as its target T3, TGFbR1 ECD P133A (human).
T3 chain: T1 chain with G105V, P109A
Description: ELISA.

For experiment [3], the target named is T4, murine TGFbR1 ECD-133-myc(His)6 (mouse, UniProt Q64729).
T4 chain: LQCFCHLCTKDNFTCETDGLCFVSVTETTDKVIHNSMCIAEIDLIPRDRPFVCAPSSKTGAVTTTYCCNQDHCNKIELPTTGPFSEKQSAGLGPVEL
The experiment can be described thus: BLI.

The target of experiment [4] is T5, endogenous TGFbR1 on cells (human).
T5 chain: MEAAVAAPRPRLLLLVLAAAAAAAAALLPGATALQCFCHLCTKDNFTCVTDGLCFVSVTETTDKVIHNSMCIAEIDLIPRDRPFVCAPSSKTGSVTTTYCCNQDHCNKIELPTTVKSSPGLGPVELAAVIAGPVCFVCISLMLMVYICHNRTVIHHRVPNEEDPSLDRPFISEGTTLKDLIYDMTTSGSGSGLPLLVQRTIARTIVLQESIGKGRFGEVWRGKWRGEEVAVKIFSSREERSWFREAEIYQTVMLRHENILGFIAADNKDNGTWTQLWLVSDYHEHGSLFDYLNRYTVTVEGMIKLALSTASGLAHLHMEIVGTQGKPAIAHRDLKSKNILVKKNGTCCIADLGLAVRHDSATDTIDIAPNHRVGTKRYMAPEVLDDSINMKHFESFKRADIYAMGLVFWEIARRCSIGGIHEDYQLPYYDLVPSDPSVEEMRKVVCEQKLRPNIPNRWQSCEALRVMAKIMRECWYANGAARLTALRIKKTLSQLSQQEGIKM
The experiment can be described thus: FACS, RWPE cells.

A further experiment addresses T6, TGFbR1 ECD L126A (human).
T6 chain: T1 chain with L102A, G105V
The experiment can be described thus: ELISA.

The target of experiment [5] is T5, endogenous TGFbR1 on cells. Description: FACS, PC-3U cells.
Another experiment deals with T7, TGFbR1 ECD I130G (human).
T7 chain: T1 chain with G105V, I106G
The experiment can be described thus: ELISA.

Experiment [6] concerns the target T2, human TGFbR1 ECD-133-myc(His)6. Description: BLI.
Experiment [7] addresses T8, human TGFbR1 ECD 33-125-myc(His)6 (human).
T8 chain: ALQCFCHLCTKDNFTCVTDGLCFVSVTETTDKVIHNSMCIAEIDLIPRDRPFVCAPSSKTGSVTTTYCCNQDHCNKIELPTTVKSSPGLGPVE
The experiment can be described thus: ELISA.

In experiment [8] the target is T9, human TGFbR1 ECD-133-huFc (human).
T9 chain: T1 chain with G105V
The experiment can be described thus: BLI.

A further experiment concerns the target T10, TGFbR1 ECD G132A (human).
T10 chain: T1 chain with G105V, G108A
The experiment can be described thus: ELISA.

Experiment [9] deals with T2, human TGFbR1 ECD-133-myc(His)6. The experiment can be described thus: ELISA.
Experiment [10] has the same target. The experiment can be described thus: SPR, biotinylated mAb.

B1: mAb #19 murine chimeric IgG1 (antibody, V domains shown)
VH: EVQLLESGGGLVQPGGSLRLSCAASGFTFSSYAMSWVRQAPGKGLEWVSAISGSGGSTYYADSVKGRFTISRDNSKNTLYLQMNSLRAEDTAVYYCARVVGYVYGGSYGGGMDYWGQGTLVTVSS
VL: DIQMTQSPSSLSASVGDRVTITCRASQSISSYLNWYQQKPGKAPKLLIYAASSLQSGVPSRFSGSGSGTDFTLTISSLQPEDFATYYCQQGYGPLTFGQGTKLEIK
Take B1: the binding result (with TGFbR1 ECD V129G; in the experiment with TGFbR1 ECD P133A; with TGFbR1 ECD L126A; with TGFbR1 ECD I130G; in [7]; with TGFbR1 ECD G132A) was “no binding” throughout. Besides, the Kd in experiment [1] was 5.6 nM and 6.5 nM; in experiment [2] it was 3.74 nM; in experiment [3] it was 18 nM; in [4], 7.81 nM; in experiment [5], 10.7 nM; in experiment [6], 3.7 nM. Further, the Kd in experiment [8] was 13 nM; in experiment [10], 2.5 nM and 2.3 nM and 1.8 nM. Besides, in experiment [9], the IC50 was 0.104 nM.
